From patent publication US20210292396A1 (INTERNATIONAL AIDS VACCINE INITIATIVE, published 2021)
Changes are numbered by the printed parent chain.

B1: PGT-121 (antibody, V domains shown)
VH: QMQLQESGPGLVKPSETLSLTCSVSGASISDSYWSWIRRSPGKGLEWIGYVHKSGDTNYSPSLKSRVNLSLDTSKNQVSLSLVAATAADSGKYYCARTLHGRRIYGIVAFNEWFTYFYMDVWGNGTQVTVSS
VL: SDISVAPGETARISCGEKSLGSRAVQWYQHRAGQAPSLIIYNNQDRPSGIPERFSGSPDSPFGTTATLTITSVEAGDEADYYCHIWDSRVPTKWVFGGGTTLTVLG
B2: ePGT121.15.H1.L1 (antibody, V domains shown)
VH: QMQLQESGPGLVKPGETLSLTCSVSGASISSSYWSWLRETPGKGLEWIGYTHHSGDTNYAPSLKSRVHLGLHPSKNQVSLSLTSVTAADTAVYYCARTLHGRRIYGVVAFNEWFTYFYWEVWGNGTQVTVSS
VL: SDISVAPGETVRISCGGESIGSRAVQWYQHRAGQAPKLIIYNNQDRPPGIPERFSGSPDIDFGTTATLTITNVEAGDEATYYCHIWDSRRPTNWVFGGGTTLTVL
B3: ePGT121.15.H6.L1 (antibody, V domains shown)
VH: B2 VH with W113F, N124K
VL: B2 VL

What follows are binders tested against HIV Env of isolate 235-47 (HIV) (assay: cell-based or functional assay).

Binder | neutralization (Table 6 value)
B1 | 0.0457
B2 | 0.0061
B3 | 0.00363

What follows are binders tested against HIV Env of isolate ZM109F.PB4 (HIV) (assay: cell-based or functional assay).

Binder | neutralization (Table 6 value)
B1 | 0.558
B2 | 2.15
B3 | 0.742

The binders below were run against HIV Env of isolate CNE20 (HIV) (assay: cell-based or functional assay).

Binder | neutralization (Table 6 value)
B1 | 0.00147
B2 | 0.000933
B3 | 0.00133

What follows are binders tested against HIV Env of isolate CNE21 (HIV) (assay: cell-based or functional assay).

Binder | neutralization (Table 6 value)
B1 | 0.00525
B2 | 0.000929
B3 | 0.00124

Each binder was assayed against HIV Env of isolate CNE53 (HIV) (assay: cell-based or functional assay).

Binder | neutralization (Table 6 value)
B1 | 0.00701
B2 | 0.00288
B3 | 0.00306

What follows are binders tested against HIV Env of isolate Ce1172_H1 (HIV) (assay: cell-based or functional assay).

Binder | neutralization (Table 6 value)
B1 | 0.00693
B2 | 0.00075
B3 | 0.000952

Each binder was assayed against HIV Env of isolate 1012_11_TC21_3257 (HIV) (assay: cell-based or functional assay).

Binder | neutralization (Table 6 value)
B1 | 0.00917
B2 | 0.00262
B3 | 0.00194

The binders below were run against HIV Env of isolate HIV-001428-2.42 (HIV) (assay: cell-based or functional assay).

Binder | neutralization (Table 6 value)
B1 | 0.0111
B2 | 0.00153
B3 | 0.00181

What follows are binders tested against HIV Env of isolate 3301.v1.c24 (HIV) (assay: cell-based or functional assay).

Binder | neutralization (Table 6 value)
B1 | 0.00869
B2 | 0.00166
B3 | 0.00134

The binders below were run against HIV Env of isolate AC10.0.29 (HIV) (assay: cell-based or functional assay).

Binder | neutralization (Table 6 value)
B1 | 0.029
B2 | 0.00272
B3 | 0.00278

What follows are binders tested against HIV Env of isolate 6240_08_TA5_4622 (HIV) (assay: cell-based or functional assay).

Binder | neutralization (Table 6 value)
B1 | 0.0427
B2 | 0.0052
B3 | 0.00465

These binders were tested against HIV Env of isolate 0260.v5.c36 (HIV) (assay: cell-based or functional assay).

Binder | neutralization (Table 6 value)
B1 | 0.00144
B2 | 0.00247
B3 | 0.00217

Each binder was assayed against HIV Env of isolate 62357_14_D3_4589 (HIV) (assay: cell-based or functional assay).

Binder | neutralization (Table 6 value)
B1 | 0.392
B2 | 0.00982
B3 | 0.0132

These binders were tested against HIV Env of isolate ZM247v1(Rev-) (HIV) (assay: cell-based or functional assay).

Binder | neutralization (Table 6 value)
B1 | 0.0114
B2 | 0.00158
B3 | 0.00191

These binders were tested against HIV Env of isolate HIV-16845-2.22 (HIV) (assay: cell-based or functional assay).

Binder | neutralization (Table 6 value)
B1 | 0.25
B2 | 0.0209
B3 | 0.0283

The binders below were run against HIV Env of isolate 0815.v3.c3 (HIV) (assay: cell-based or functional assay).

Binder | neutralization (Table 6 value)
B1 | 7.9e-05
B2 | 0.00167
B3 | 0.00022

What follows are binders tested against HIV Env of isolate T250-4 (HIV) (assay: cell-based or functional assay).

Binder | neutralization (Table 6 value)
B1 | 0.00021
B2 | 0.000854
B3 | 0.000789

The binders below were run against HIV Env of isolate BJOX009000.02.4 (HIV) (assay: cell-based or functional assay).

Binder | neutralization (Table 6 value)
B1 | 0.243
B2 | 0.0255
B3 | 0.0166

Each binder was assayed against HIV Env of isolate CNE58 (HIV) (assay: cell-based or functional assay).

Binder | neutralization (Table 6 value)
B1 | 1.28
B2 | 0.00795
B3 | 0.0145

The binders below were run against HIV Env of isolate X2088_c9 (HIV) (assay: cell-based or functional assay).

Binder | neutralization (Table 6 value)
B1 | 0.00214
B2 | 0.00147
B3 | 0.00108

The binders below were run against HIV Env of isolate CNE19 (HIV) (assay: cell-based or functional assay).

Binder | neutralization (Table 6 value)
B1 | 0.00315
B2 | 0.00103
B3 | 0.000806

The binders below were run against HIV Env of isolate Q23.17 (HIV) (assay: cell-based or functional assay).

Binder | neutralization (Table 6 value)
B1 | 0.00412
B2 | 0.00126
B3 | 0.00146

Each binder was assayed against HIV Env of isolate A07412M1.vrc12 (HIV) (assay: cell-based or functional assay).

Binder | neutralization (Table 6 value)
B1 | 0.00949
B2 | 0.000964
B3 | 0.00204

These binders were tested against HIV Env of isolate Ce1176_A3 (HIV) (assay: cell-based or functional assay).

Binder | neutralization (Table 6 value)
B1 | 0.00882
B2 | 0.00282
B3 | 0.00302

The binders below were run against HIV Env of isolate SC05_8C11_2344 (HIV) (assay: cell-based or functional assay).

Binder | neutralization (Table 6 value)
B1 | 0.0278
B2 | 0.00762
B3 | 0.00473

What follows are binders tested against HIV Env of isolate X1193_c1 (HIV) (assay: cell-based or functional assay).

Binder | neutralization (Table 6 value)
B1 | 0.000417
B2 | 0.000256
B3 | 0.000518

What follows are binders tested against HIV Env of isolate T211-9 (HIV) (assay: cell-based or functional assay).

Binder | neutralization (Table 6 value)
B1 | 0.891
B2 | 0.00532
B3 | 0.00751

Each binder was assayed against HIV Env of isolate 6811.v7.c18 (HIV) (assay: cell-based or functional assay).

Binder | neutralization (Table 6 value)
B1 | 0.00125
B2 | 0.00109
B3 | 0.00114

The binders below were run against HIV Env of isolate X1254_c3 (HIV) (assay: cell-based or functional assay).

Binder | neutralization (Table 6 value)
B1 | 0.0206
B2 | 0.00299
B3 | 0.00272

What follows are binders tested against HIV Env of isolate Du172.17 (HIV) (assay: cell-based or functional assay).

Binder | neutralization (Table 6 value)
B1 | 0.0316
B2 | 0.0024
B3 | 0.00203

The binders below were run against HIV Env of isolate CNE30 (HIV) (assay: cell-based or functional assay).

Binder | neutralization (Table 6 value)
B1 | 0.00313
B2 | 0.00299
B3 | 0.00289

Each binder was assayed against HIV Env of isolate P0402_C2_11 (HIV) (assay: cell-based or functional assay).

Binder | neutralization (Table 6 value)
B1 | 0.000423
B2 | 0.00268
B3 | 0.0015

The binders below were run against HIV Env of isolate PVO.4 (HIV) (assay: cell-based or functional assay).

Binder | neutralization (Table 6 value)
B1 | 0.115
B2 | 0.0044
B3 | 0.00517

Each binder was assayed against HIV Env of isolate CAAN5342.A2 (HIV) (assay: cell-based or functional assay).

Binder | neutralization (Table 6 value)
B1 | 0.00872
B2 | 0.00192
B3 | 0.00221

What follows are binders tested against HIV Env of isolate P1981_C5_3 (HIV) (assay: cell-based or functional assay).

Binder | neutralization (Table 6 value)
B1 | 0.00146
B2 | 0.00069
B3 | 0.000543

The binders below were run against HIV Env of isolate TRJO4551.58 (HIV) (assay: cell-based or functional assay).

Binder | neutralization (Table 6 value)
B1 | 0.406
B2 | 0.00359
B3 | 0.00673

These binders were tested against HIV Env of isolate CAP45.2.00.G3 (HIV) (assay: cell-based or functional assay).

Binder | neutralization (Table 6 value)
B1 | 0.0713
B2 | 3.06
B3 | 1.8e-05

Each binder was assayed against HIV Env of isolate CNE17 (HIV) (assay: cell-based or functional assay).

Binder | neutralization (Table 6 value)
B1 | 0.225
B2 | 0.0106
B3 | 0.0101

Each binder was assayed against HIV Env of isolate CNE52 (HIV) (assay: cell-based or functional assay).

Binder | neutralization (Table 6 value)
B1 | 1.94
B2 | 0.0515
B3 | 0.0784

The binders below were run against HIV Env of isolate 6244_13_B5_4576 (HIV) (assay: cell-based or functional assay).

Binder | neutralization (Table 6 value)
B1 | 0.14
B2 | 0.00697
B3 | 0.0055

Each binder was assayed against HIV Env of isolate 1394C9G1(Rev-) (HIV) (assay: cell-based or functional assay).

Binder | neutralization (Table 6 value)
B1 | 0.122
B2 | 0.00403
B3 | 0.00288

What follows are binders tested against HIV Env of isolate 928-28 (HIV) (assay: cell-based or functional assay).

Binder | neutralization (Table 6 value)
B1 | 0.836
B2 | 0.0868
B3 | 0.0852

The binders below were run against HIV Env of isolate ZM135M.PL10a (HIV) (assay: cell-based or functional assay).

Binder | neutralization (Table 6 value)
B1 | 1.32
B2 | 0.11
B3 | 0.168

These binders were tested against HIV Env of isolate 1006_11_C3_1601 (HIV) (assay: cell-based or functional assay).

Binder | neutralization (Table 6 value)
B1 | 0.00382
B2 | 0.00195
B3 | 0.00214

The binders below were run against HIV Env of isolate 246F_C1G (HIV) (assay: cell-based or functional assay).

Binder | neutralization (Table 6 value)
B1 | 0.0215
B2 | 0.00428
B3 | 0.00278
